Test results published in patent US20050049299A1, “Selective inhibitors of stat-3 activation and uses thereof” (priority 2003, published 2005).

How the values were obtained:
MM.1S and MM.1R cells = experiment: TNF- and LT-induced proliferation of MM.1S and MM.1R cells (thymidine incorporation); format: cell-based, human; conditions: serum starved 12 h, 48 hours serum-free
Procedure: (§1) The cell proliferation assay was performed as described below. Results are shown as mean (±s.d. indicated by error bar) of percent [^3H] thymidine incorporation of triplicate cultures compared to the untreated control. […] Cells were treated with IL-6 for 10 minutes as a positive control for STAT3 phosphorylation. Thirty micrograms of whole cell extract was were resolved on 7.5% SDS-PAGE, electrotransferred to a nitrocellulose membrane, and probed for phosphorylated-STAT3 (upper panel), stripped, and reprobed for STAT3 (lower panel).
The antiproliferative effects of curcumin were also monitored by the thymidine incorporation method. For this, 5000 cells in 100 μl medium were cultured in triplicate in 96-well plates in the presence or absence of curcumin for 24 h. Six hours before the completion of experiment, cells were pulse treated with 0.5 μCi [^3H]thymidine, and the uptake of [^3H]thymidine was monitored using a Matrix-9600 β-counter (Packard Instruments, Downers Grove, Ill.).
(§2) MM.1S and MM.1R cells were serum starved for 12 h and then treated with TNF or lymphotoxin in the serum free medium.

STAT3 phosphorylation = STAT3 phosphorylation in MM.1S and MM.1R cells after TNF, LT or IL-6 (Western blot); format: cell-based, human; conditions: 1 nM TNF or LT
Procedure: as §1
For detection of STAT proteins, whole-cell extracts were prepared by lysing the curcumin-treated cells in lysis buffer (20 mM Tris, pH 7.4, 250 mM NaCl, 2 mM EDTA, pH 8.0, 0.1% Triton-X100, 0.01 mg/ml aprotinin, 0.005 mg/ml leupeptin, 0.4 mM PMSF, and 4 mM NaVO4). Lysates were then spun at 14000 rpm for 10 min to remove insoluble material, and resolved on a 7.5% gel. After electrophoresis, the proteins were electrotransferred to a nitrocellulose membrane, blocked with 5% nonfat milk, and probed with anti-STAT antibodies (1:1000) overnight at 4° C. The blot was washed, exposed to HRP-conjugated secondary antibodies for 1 h, and finally examined by chemiluminescence (ECL, Amersham Pharmacia Biotech. Arlington Heights, Ill.).
as §2

B1: lymphotoxin: bacteria-derived recombinant human LT provided by Genentech (protein, UniProt P01374 35-205, looked up)
Lymphotoxin-alpha: LPGVGLTPSAAQTARQHPKMHLAHSTLKPAAHLIGDPSKQNSLLWRANTDRAFLQDGFSLSNNSLLVPTSGIYFVYSQVVFSGKAYSPKATSSPLYLAHEVQLFSSQYPFHVPLLSSQKMVYPGLQEPWLHSMYHGAAFQLTQGDQLSTHTDGIPHLVLSPSTVFFGAFAL
- proliferative effects in MM.1S and MM.1R cells (MM.1S and MM.1R cells): more pronounced in dex-resistant MM.1R cells than in dex-sensitive MM.1S cells
- induction of STAT3 phosphorylation (STAT3 phosphorylation): neither TNF nor lymphotoxin induced STAT3 phosphorylation
